Article PMC3783652

B1: 4ISIYTSD10, unsulfated Tyr7 peptide of CXCR4 (peptide)
peptide: Ac-ISIYTSD-NH2
B2: 9SDNsYTEE15, sTyr12 sulfopeptide of CXCR4 (peptide)
peptide: SDNYTEE
HELM: PEPTIDE1{[ac].S.D.N.[O=C([C@H](Cc1ccc(OS(=O)(=O)O)cc1)N[*:1])[*:2]].T.E.E.[am]}$$$$V2.0
SMILES: CC(=O)N[C@@H](CO)C(=O)N[C@@H](CC(=O)O)C(=O)N[C@@H](CC(N)=O)C(=O)N[C@@H](Cc1ccc(OS(=O)(=O)O)cc1)C(=O)N[C@H](C(=O)N[C@@H](CCC(=O)O)C(=O)N[C@@H](CCC(=O)O)C(N)=O)[C@@H](C)O
B3: 9SDNYTEE15, unsulfated Tyr12 peptide of CXCR4 (peptide)
peptide: Ac-SDNYTEE-NH2
B4: 4ISIsYTSD10, sTyr7 sulfopeptide of CXCR4 (peptide)
peptide: ISIYTSD
HELM: PEPTIDE1{[ac].I.S.I.[O=C([C@H](Cc1ccc(OS(=O)(=O)O)cc1)N[*:1])[*:2]].T.S.D.[am]}$$$$V2.0
SMILES: CC[C@H](C)[C@H](NC(C)=O)C(=O)N[C@@H](CO)C(=O)N[C@H](C(=O)N[C@@H](Cc1ccc(OS(=O)(=O)O)cc1)C(=O)N[C@H](C(=O)N[C@@H](CO)C(=O)N[C@@H](CC(=O)O)C(N)=O)[C@@H](C)O)[C@@H](C)CC
B5: 18SGDsYDSM24, sTyr21 sulfopeptide of CXCR4 (peptide)
peptide: SGDYDSM
HELM: PEPTIDE1{[ac].S.G.D.[O=C([C@H](Cc1ccc(OS(=O)(=O)O)cc1)N[*:1])[*:2]].D.S.M.[am]}$$$$V2.0
SMILES: CSCC[C@H](NC(=O)[C@H](CO)NC(=O)[C@H](CC(=O)O)NC(=O)[C@H](Cc1ccc(OS(=O)(=O)O)cc1)NC(=O)[C@H](CC(=O)O)NC(=O)CNC(=O)[C@H](CO)NC(C)=O)C(N)=O
B6: 18SGDYDSM24, unsulfated Tyr21 peptide of CXCR4 (peptide)
peptide: Ac-SGDYDSM-NH2

Target: CXCL12_(2), constitutively dimeric CXCL12 variant (locked dimer) (UniProt P48061)
Assay: NMR titration

Binder	Kd [µM]
B1	418
B2	266
B3	332
B4	386
B5	211
B6	831
